Molecular target: homotypic K48-polyUb cyB1-NT^K64 (GST-bound single-lysine N-terminal fragment of cyclin B1 ubiquitinated with Ub^K48) (UniProt P0CG48)
Test: pull-down; resin-bound polyUb conjugates (≈20 nM) incubated with purified 26S proteasomes (10 nM) at 4°C, washed; bound proteasomes measured by cleavage of suc-LLVY-AMC at 37°C (one panel also with 300 nM hHR23A)

homotypic K48-polyUb cyB1-NT^K64 (GST-bound single-lysine N-terminal fragment of cyclin B1 ubiquitinated with Ub^K48), sequence (P0CG48 whole entry, looked up, the tested form may be a part): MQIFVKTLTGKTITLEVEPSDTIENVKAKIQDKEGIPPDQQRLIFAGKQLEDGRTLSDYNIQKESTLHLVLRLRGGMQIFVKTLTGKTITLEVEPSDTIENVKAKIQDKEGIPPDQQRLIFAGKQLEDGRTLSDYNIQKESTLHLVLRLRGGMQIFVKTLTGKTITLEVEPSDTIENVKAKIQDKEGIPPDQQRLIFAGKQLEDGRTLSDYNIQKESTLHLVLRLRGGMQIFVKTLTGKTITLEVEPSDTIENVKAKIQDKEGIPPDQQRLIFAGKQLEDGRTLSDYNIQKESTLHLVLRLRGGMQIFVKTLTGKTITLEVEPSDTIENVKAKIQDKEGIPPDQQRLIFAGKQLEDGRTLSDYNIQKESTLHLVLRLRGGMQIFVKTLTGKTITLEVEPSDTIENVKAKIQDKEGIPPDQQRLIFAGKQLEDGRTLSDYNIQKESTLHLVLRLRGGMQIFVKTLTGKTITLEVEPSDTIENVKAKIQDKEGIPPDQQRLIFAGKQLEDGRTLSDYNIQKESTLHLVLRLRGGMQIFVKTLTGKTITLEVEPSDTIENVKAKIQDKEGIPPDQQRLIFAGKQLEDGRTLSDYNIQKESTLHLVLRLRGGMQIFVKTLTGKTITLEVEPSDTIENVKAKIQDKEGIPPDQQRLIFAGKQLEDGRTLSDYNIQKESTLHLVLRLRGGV

fold binding relative to K11 chains (K11-polyUb cyB1-NT^K64): 4.5 fold
Substance: 26S proteasome purified from rabbit muscle (complex)
